Assay results: US20250296982A1

How the values were obtained:
[1] = biological target: TRIM21-GST (Antibodies Online catalogue #ABIN1323621) (UniProt P19474); test: ELISA: antibody coated at 25 µg/mL, TRIM21-GST titrated, EC50 = midpoint of the 4PL fit
[2] = biological target: TRIM21-GST (Antibodies Online catalogue #ABIN1323621) (UniProt P19474); test: ELISA, antibody coated, TRIM21-GST titrated; reference WT
[3] = biological target: recombinant human FcRn (human α-FcRn with a 6× histidine tag on the C-terminus, co-expressed with human β2M) (human) (UniProt P55899); test: biolayer interferometry (Octet): antibody on anti-CH1 biosensor, recombinant FcRn in solution, pH 6.0; fold change against IgG with WT Fc
FcγRIIIa [4] = biological target: FcγRIIIa (UniProt P08637)
[5] = biological target: C1q of the low toxicity guinea pig complement used in the CDC assay (Cedarlane Laboratories Product #CL4051) (guinea pig)
FcγRIIIa [6] = biological target: FcγRIIIa (UniProt P08637); test: plate binding assay, O.D. 650 against antibody concentration (format not described in Example 4)
[7] = biological target: recombinant human FcRn (human α-FcRn with a 6× histidine tag on the C-terminus, co-expressed with human β2M) (human) (UniProt P55899); test: biolayer interferometry (Octet): antibody on anti-CH1 tip, FcRn in solution, pH 6.0
[8] = biological target: full-length, membrane-bound FcRn heterodimer (FcRn alpha and β2m) on transiently transfected Expi293 cells (UniProt P55899); test: cell-based competition at pH 6.0, flow cytometry: FcRn-expressing cells, dilutions of IgG against a fixed concentration of labelled Fc competitor Fc-A488
FcγRIIIa [9] = biological target: FcγRIIIa (UniProt P08637); test: ELISA: FcγRIIIA coated, antibody titrated
[10] = biological target: recombinant human FcRn (human α-FcRn with a 6× histidine tag on the C-terminus, co-expressed with human β2M) (human) (UniProt P55899); test: biolayer interferometry (Octet): antibody on anti-CH1 biosensor, recombinant FcRn in solution, pH 6.0; reference of the fold changes

Row | Substance | EC50 [1] | TRIM21 binding EC50, fold of WT EC50 [2] | kd (fold decrease*) [3] | koff (fold decrease*) [3] | kon (fold increase*) [3] | EC50 (ADCC reporter bioassay, CD20+ WIL2-S target cells) (FcγRIIIa [4]) | EC50 (CDC, CD20+ Raji cells with guinea pig complement) [5] | other results
1 | Motavizumab with Fc variant FcMut197 (H285N_T307Q_N315D) (antibody) | 12300 ng/mL | < 1.5 fold | 9.1 fold | 3 fold | 2.9 fold |  |  | 
2 | Rituximab with Fc variant FcMut197 (H285N_T307Q_N315D) (antibody) |  |  |  |  |  | 8.3 ng/mL | 2.54 ng/mL | 
3 | Rituximab with Fc variant FcMut183 (T256D_Q311V_A378V) (antibody) |  |  |  |  |  | 3.92 ng/mL | 0.103 ng/mL | 
4 | Motavizumab with Fc variant FcMut215 (T307Q_Q311V_A378V) (antibody) | 7800 ng/mL | < 1.5 fold | 12.4 fold | 3.7 fold | 3.4 fold |  |  | 
5 | Motavizumab with Fc variant FcMut213 (H285D_T307Q_A378V) (antibody) | 10500 ng/mL | < 1.5 fold | 13.2 fold | 3.3 fold | 3.8 fold |  |  | 
6 | Rituximab with Fc variant FcMut228 (T256D_N286D_T307R_Q311V_A378V) (antibody) |  |  |  |  |  | 2.66 ng/mL | 0.22 ng/mL | 
7 | YTE (Medimmune) (antibody) | 10100 ng/mL |  | 8.5 fold | 3.6 fold | 2.3 fold |  |  | 
8 | Motavizumab with Fc variant FcMut045 (T256D_T307R_Q311V) (antibody) | 7730 ng/mL | < 1.5 fold | 5.9 fold | 2.6 fold | 2.3 fold |  |  | 
9 | LS (antibody) |  |  |  |  |  |  |  | EC50 (read off the curve) (FcγRIIIa [6]): 60 nM
10 | Motavizumab with Fc variant FcMut228 (T256D_N286D_T307R_Q311V_A378V) (antibody) | 10400 ng/mL | < 1.5 fold | 12.4 fold | 4 fold | 3.2 fold |  |  | 
11 | Rituximab with Fc variant FcMut215 (T307Q_Q311V_A378V) (antibody) |  |  |  |  |  | 2.73 ng/mL | 0.141 ng/mL | 
12 | antibody molecule with Fc variant FcMut015 (D376Q_M428L) |  |  |  |  |  |  |  | Kd [7]: 287 nM; IC50 (read off the curve) [8]: 90 nM
13 | Rituximab with Fc variant FcMut229 (T256D_H285D_T307R_Q311V_A378V) (antibody) |  |  |  |  |  | 3.07 ng/mL | 0.14 ng/mL | 
14 | WT (antibody) |  |  |  |  |  | 6.14 ng/mL | 0.715 ng/mL | Kd [7]: 862 nM; EC50 (read off the curve) (FcγRIIIa [6]): 40 nM; EC50 (read off the curve) (FcγRIIIa [9]): 3000 ng/mL; IC50 (read off the curve) [8]: 300 nM
15 | antibody molecule with Fc variant FcMut008 (T256D_T307R) |  |  |  |  |  |  |  | Kd [7]: 383 nM; IC50 (read off the curve) [8]: 100 nM
16 | LS (Xencor) (antibody) | 14500 ng/mL |  | 9.2 fold | 3.6 fold | 2.6 fold |  |  | 
17 | Motavizumab with wild-type Fc (antibody) | 8500 ng/mL |  |  |  |  |  |  | kd (fold decrease*) [10]: 1 fold; koff (fold decrease*) [10]: 1 fold; kon (fold increase*) [10]: 1 fold
18 | Motavizumab with Fc variant FcMut183 (T256D_Q311V_A378V) (antibody) | 7410 ng/mL | < 1.5 fold | 11 fold | 3.2 fold | 3.2 fold |  |  | 
19 | Rituximab with Fc variant FcMut213 (H285D_T307Q_A378V) (antibody) |  |  |  |  |  | 4.01 ng/mL | 0.267 ng/mL | 
